Results published in US20210253697A1.
Values belong to the substance of their own block, whether it stands above or below them.

Experiments:
[1] = biological target: human TREM-1 on cells (BWZ/hTREM-1 reporter cells, PBMCs, macrophages, neutrophils, monocytes, synovial tissue cells) (human) (UniProt Q9NP99); assay: cell-based or functional assay
[2] = biological target: human TREM-1 (hTREM-1 protein, SPR analyte of Examples 9 and 11) (human) (UniProt Q9NP99); assay: SPR, mAb captured, hTREM-1 analyte (Example 11)
[3] = biological target: T1, cynomolgus monkey TREM-1 on cells (reporter cells, PBMCs, macrophages) (cynomolgus monkey); assay: cell-based or functional assay
T1 sequence: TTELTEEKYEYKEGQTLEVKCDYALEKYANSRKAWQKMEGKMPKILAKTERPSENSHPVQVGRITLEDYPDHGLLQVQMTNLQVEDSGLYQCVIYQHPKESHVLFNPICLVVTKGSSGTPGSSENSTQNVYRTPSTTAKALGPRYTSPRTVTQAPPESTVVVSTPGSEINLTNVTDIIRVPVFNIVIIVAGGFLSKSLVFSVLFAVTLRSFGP

[4] = biological target: cynomolgus TREM-1 (cTREM-1 protein, SPR analyte of Examples 9 and 11) (cynomolgus monkey); assay: SPR, mAb captured, cTREM-1 analyte (Example 11)

human TREM-1 on cells (BWZ/hTREM-1 reporter cells, PBMCs, macrophages, neutrophils, monocytes, synovial tissue cells) (human), sequence (Q9NP99 21-234 limits assumed): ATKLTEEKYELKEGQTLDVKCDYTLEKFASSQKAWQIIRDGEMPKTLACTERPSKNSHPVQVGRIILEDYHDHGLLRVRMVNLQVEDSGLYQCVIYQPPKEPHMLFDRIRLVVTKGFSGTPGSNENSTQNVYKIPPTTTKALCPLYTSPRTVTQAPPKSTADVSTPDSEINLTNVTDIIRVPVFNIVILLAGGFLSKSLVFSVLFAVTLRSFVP
human PGLYRP1, sequence (O75594 22-196 limits assumed): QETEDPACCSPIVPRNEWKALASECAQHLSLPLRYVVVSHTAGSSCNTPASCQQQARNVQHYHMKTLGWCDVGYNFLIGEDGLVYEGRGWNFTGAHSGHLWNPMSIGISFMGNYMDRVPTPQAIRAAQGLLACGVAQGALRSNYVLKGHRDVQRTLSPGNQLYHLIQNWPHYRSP
human TREM-1 (hTREM-1 protein, SPR analyte of Examples 9 and 11) (human), sequence (Q9NP99 21-200 limits assumed): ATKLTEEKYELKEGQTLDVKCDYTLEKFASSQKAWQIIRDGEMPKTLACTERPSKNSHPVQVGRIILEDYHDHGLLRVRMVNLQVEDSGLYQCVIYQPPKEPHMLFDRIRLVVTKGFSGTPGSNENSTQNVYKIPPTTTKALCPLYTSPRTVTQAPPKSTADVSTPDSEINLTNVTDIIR

BWZ/hTREM-1 reporter signal, RA synovial fluid, mAb 0.1 ug/ml, assay 1 [1]: 829000
BWZ/hTREM-1 reporter signal, RA synovial fluid, mAb 0.1 ug/ml, assay 2 [1]: 691000
BWZ/hTREM-1 reporter signal, RA synovial fluid, mAb 1 ug/ml, assay 1 [1]: 1.19e+06
BWZ/hTREM-1 reporter signal, RA synovial fluid, mAb 1 ug/ml, assay 2 [1]: 1.02e+06
BWZ/hTREM-1 reporter signal, RA synovial fluid, mAb 10 ug/ml, assay 1 [1]: 1.08e+06
BWZ/hTREM-1 reporter signal, RA synovial fluid, mAb 10 ug/ml, assay 2 [1]: 1.05e+06
IL-6, M2 macrophages on platebound mAb 2 µg/ml, Avg [1]: 412 pg/mL
IL-6, M2 macrophages on platebound mAb 6 µg/ml, Avg [1]: 877 pg/mL
IL-6, M2 macrophages on platebound mAb 20 µg/ml, Avg [1]: 1350 pg/mL
Luminescence × 10E6, BWZ/hTREM-1 reporter cells + activated neutrophils [1]: 1e+07 luminescence
TNFa, M2 macrophages on platebound mAb 2 µg/ml, Avg [1]: 2000 pg/mL
TNFa, M2 macrophages on platebound mAb 6 µg/ml, Avg [1]: 6450 pg/mL
TNFa, M2 macrophages on platebound mAb 20 µg/ml, Avg [1]: 7750 pg/mL
induction of NFAT-driven LacZ production, 1-10 µg/ml plate bound antibody [1]: 40 fold
induction of reporter luminescence, platebound antibody (FIG. 2) [1]: 32 fold
normalised reporter signal, antibody at 1 µg/ml (FIG. 3) [1]: > 1
Substance: MAB1278 (R&D Systems, cat. no. MAB1278) (antibody)

Kd [2]: 30 nM
% remaining activity at 0.003 µg/ml, BWZ/hTREM-1 reporter assay [1]: 120%
% remaining activity at 0.03 µg/ml, BWZ/hTREM-1 reporter assay [1]: 134%
% remaining activity at 0.3 µg/ml, BWZ/hTREM-1 reporter assay [1]: 131%
Substance: SC98Z12 (Santa Cruz Biotechnology, sc-80394, clone 98Z12) (antibody)

% remaining activity at 0.003 µg/ml, BWZ/hTREM-1 reporter assay [1]: 104%
% remaining activity at 0.03 µg/ml, BWZ/hTREM-1 reporter assay [1]: 101%
% remaining activity at 0.3 µg/ml, BWZ/hTREM-1 reporter assay [1]: 97%
Substance: Sigma #SAB1405121 (clone 3F5) (antibody)

Kd [2]: 20 nM
% remaining activity at 0.003 µg/ml, BWZ/hTREM-1 reporter assay [1]: 98%
% remaining activity at 0.03 µg/ml, BWZ/hTREM-1 reporter assay [1]: 104%
% remaining activity at 0.3 µg/ml, BWZ/hTREM-1 reporter assay [1]: 86%
Substance: Sigma #WH0054210M4 (clone 2E2) (antibody)

Kd [2]: 0.9 nM
% remaining cyno TREM-1 activity at 0.74 ug/ml, reporter assay [3]: 104%
% remaining cyno TREM-1 activity at 20 ug/ml, reporter assay [3]: 87.7%
% remaining activity at 0.003 µg/ml, BWZ/hTREM-1 reporter assay [1]: 100%
% remaining activity at 0.03 µg/ml, BWZ/hTREM-1 reporter assay [1]: 124%
% remaining activity at 0.3 µg/ml, BWZ/hTREM-1 reporter assay [1]: 108%
Luminescence × 10E6, BWZ/hTREM-1 reporter cells + activated neutrophils [1]: 9.9e+06 luminescence
normalised reporter signal, antibody at 1 µg/ml (FIG. 3) [1]: > 1
Kd [4]: 4 nM
Substance: TREM-26 (Biolegend, cat. nos. 314902 and 314907) (antibody)

Kd [2]: 0.8 nM
% remaining activity at 0.003 µg/ml, BWZ/hTREM-1 reporter assay [1]: 98%
% remaining activity at 0.03 µg/ml, BWZ/hTREM-1 reporter assay [1]: 103%
% remaining activity at 0.3 µg/ml, BWZ/hTREM-1 reporter assay [1]: 90%
Luminescence × 10E6, BWZ/hTREM-1 reporter cells + activated neutrophils [1]: 6.1e+06 luminescence
normalised reporter signal, antibody at 1 µg/ml (FIG. 3) [1]: > 1
Substance: TREM-37 (Biolegend, cat. no. 316102) (antibody)

TNF-α, cyno M2 macrophages, PGN + PGRP-S, Donor 1 Avg [3]: 295 pg/mL
TNF-α, cyno M2 macrophages, PGN + PGRP-S, Donor 2 Avg [3]: 307 pg/mL
GM-CSF, RA synovial tissue cells, PGN + PGLYRP1 [1]: 616 pg/mL
IL-1beta, RA synovial tissue cells, PGN + PGLYRP1 [1]: 3770 pg/mL
IL-6, RA synovial tissue cells, PGN + PGLYRP1 [1]: 4190 pg/mL
IL-8, RA synovial tissue cells, PGN + PGLYRP1 [1]: 5510 pg/mL
MCP-1, RA synovial tissue cells, PGN + PGLYRP1 [1]: 471 pg/mL
MIP-1beta, RA synovial tissue cells, PGN + PGLYRP1 [1]: 4400 pg/mL
TNFa, normoxic M2 macrophages, PGN-BS + PGLYRP1, Donor 1 Avg [1]: 728 pg/mL
TNFa, normoxic M2 macrophages, PGN-BS + PGLYRP1, Donor 2 Avg [1]: 771 pg/mL
TNFalpha, RA synovial tissue cells, PGN + PGLYRP1 [1]: 1440 pg/mL
Substance: human PGLYRP1 (from UniProt O75594 22-196) (ligand)

TNF-a release, RA synovial tissue cells, IgG4 + Type II cells, 1 × 10^4 HEK cells [1]: 95 pg/mL
TNF-a release, RA synovial tissue cells, IgG4 + Type II cells, 1 × 10^5 HEK cells [1]: 121 pg/mL
TNF-a release, RA synovial tissue cells, IgG4 + Type II cells, 3 × 10^3 HEK cells [1]: 54.6 pg/mL
TNF-a release, RA synovial tissue cells, IgG4 + Type II cells, 3 × 10^3 HEK cells (second column so headed) [1]: 57.9 pg/mL
TNF-a release, RA synovial tissue cells, IgG4 + Type II cells, 3 × 10^4 HEK cells [1]: 114 pg/mL
Substance: type II PGLYRP1 on transiently transfected HEK cells (ligand)
